Measurements as given in patent publication US8962263B2, “Methods and compositions for detecting the activation state of multiple proteins in single cells” (The Board of Trustees of the Leland Stanford Junior …, priority 2001, dated 2015).
Where two headings read alike, the source gives them in different places.

What was measured:
[1] = tested on: p44/42 MAPK; assay: intracellular phospho-p44/42 MAPK by flow cytometry in ICAM-2 treated Jurkat cells; format: cell-based, human; details: chemical agents 10 μM, EDTA 1 mM; mAbs titrated prior to ICAM-2
Text: A) Mean fluorescent intensity values (MFI) of ICAM-2-FITC (adhesion) and mAb24-Alexa633, (LFA-1, activation) in treated Jurkat cells (as above). Control unstimulated and/or compound pretreated values were subtracted. B) Top panel: Intracellular phospho-p44/42, MAPK detection as a function of ICAM-2, dose in Jurkat cells by flow cytometry (see Material and Methods). Mean fluorescent intensity values (MFI) were plotted±standard deviation (SD). Bottom panel: ICAM-2, treated Jurkat cells were stained for intracellular phospho-p44/42, MAPK as described above. mAbs to β2, and αL, integrins (10, μg/ml, 10, minutes) were titrated prior to ICAM-2, treatment as indicated and plotted for MFI±SD. C) ICAM-2, induced p44/42, MAPK activity is blocked by β2, and αL, integrin antibodies as determined by a p44/42 MAPK kinase assay. Conditions for induction and inhibition are as described above. Recombinant active p44/42, MAPK served as an internal positive control (denoted by “+”). D) Inhibition and activation profile for intracellular phospho-p44/42, by flow cytometry in the presences of chemical agents (10, μM), EDTA (1, mM), or PMA, ionomycin and ICAM-2, stimulus (as indicated above). MFI values±SD are plotted.
Intracellular and extracellular staining was performed as described (Perez and Nolan, 2002). Intracellular probes for active kinases were made by conjugating phospho-specific antibodies to the ALEXA FLUOR® dye series as described and used in phospho-protein optimized conditions (Perez and Nolan, 2002). Kinetic analyses was performed by direct application of fixation buffer in time synchronized 96-wells maintained at 37° C. Intracellular actin and microtubule staining was performed using phalloidin-Alexa633 and taxol-Alexa546 dyes (Molecular Probes). Adhesion and clustering assays were performed using ICAM-2-FITC as described in text. LFA-1 activation was assessed by either mAb24-Alexa633 or mAb24-Alexa546 conjugate, surface stained at 37° C. Flow cytometry data are representative of 3 independent experiments of 10^6 cells/sample. 10-50,000 events were collected and manually calibrated on a FACSCalibur™ machine. Data plotted in bar graph format is expressed as geometric mean fluorescence intensity (MFI) and normalized for isotype controls. Log ratios are defined as the MFI of stimulus to the MFI of unstimulated cells. Data was analyzed using Flowjo™ software (Treestar).

[2] = tested on: ezrin; assay: phosphotyrosine-protein based elisa for ezrin tyrosine phosphorylation upon ICAM-2 ligation; format: cell-based, human; details: Jurkat cells
[3] = tested on: human naïve T-cells; assay: T cell activation by CD25 and CD69 markers in human naïve T cells; format: cell-based; details: combined with CD3/CD28 stimulation
Protocol: A) Intracellular detection of IL-2, of titration of CD3/CD28, vs. LFA-1, stimulus or CD3, vs. CD28, stimulus for 6, hours. Median Fluorescent intensity is plotted as a visual array. B) Bivariate analysis of CD69, and CD25 expression in unstimulated, CD3/CD28/LFA-1, (0.001, μg/ml, 1:1:1) stimulated, and CD3/CD28, (10 μg/ml) stimulated CD4, T cells. C) Bivariate plot of CD69, expression and intracellular detection of IL-2, post 12, hour stimulation of unstimulated, CD3/CD28, and CD3/CD28/LFA-1, stimulation.
Intracellular and extracellular staining was performed as described for phospho-staining (Perez and Nolan, 2002). […] Four or less color flow cytometry data acquisition was collected on a FACSCalibur machine (Beckton Dickinson, San Jose Calif.) using CELLQuest software, analyzed and presented using FlowJo software (Tree Star, San Carlos, California). […] Data were collected by FACS-Desk software and compensated, analyzed, and presented using FlowJo software. […] Ratios of intracellular flow cytometric measurements were calculated from the following equation where MFI equals mean fluorescent intensity: Log [(MFIexperimental−MFIisotype mAb)/(MFIcontrol−MFlisotype mAb)].

[4] = tested on: p44/42 MAPK; assay: phospho-p44/42 MAPK immunoblot and p44/42 MAPK kinase assay in soluble ICAM-2 treated Jurkat cells; format: cell-based, human
[5] = target: LFA-1 (Homo sapiens, UniProt P20701); details: cited from earlier work
Chain of LFA-1 (P20701 26-1170): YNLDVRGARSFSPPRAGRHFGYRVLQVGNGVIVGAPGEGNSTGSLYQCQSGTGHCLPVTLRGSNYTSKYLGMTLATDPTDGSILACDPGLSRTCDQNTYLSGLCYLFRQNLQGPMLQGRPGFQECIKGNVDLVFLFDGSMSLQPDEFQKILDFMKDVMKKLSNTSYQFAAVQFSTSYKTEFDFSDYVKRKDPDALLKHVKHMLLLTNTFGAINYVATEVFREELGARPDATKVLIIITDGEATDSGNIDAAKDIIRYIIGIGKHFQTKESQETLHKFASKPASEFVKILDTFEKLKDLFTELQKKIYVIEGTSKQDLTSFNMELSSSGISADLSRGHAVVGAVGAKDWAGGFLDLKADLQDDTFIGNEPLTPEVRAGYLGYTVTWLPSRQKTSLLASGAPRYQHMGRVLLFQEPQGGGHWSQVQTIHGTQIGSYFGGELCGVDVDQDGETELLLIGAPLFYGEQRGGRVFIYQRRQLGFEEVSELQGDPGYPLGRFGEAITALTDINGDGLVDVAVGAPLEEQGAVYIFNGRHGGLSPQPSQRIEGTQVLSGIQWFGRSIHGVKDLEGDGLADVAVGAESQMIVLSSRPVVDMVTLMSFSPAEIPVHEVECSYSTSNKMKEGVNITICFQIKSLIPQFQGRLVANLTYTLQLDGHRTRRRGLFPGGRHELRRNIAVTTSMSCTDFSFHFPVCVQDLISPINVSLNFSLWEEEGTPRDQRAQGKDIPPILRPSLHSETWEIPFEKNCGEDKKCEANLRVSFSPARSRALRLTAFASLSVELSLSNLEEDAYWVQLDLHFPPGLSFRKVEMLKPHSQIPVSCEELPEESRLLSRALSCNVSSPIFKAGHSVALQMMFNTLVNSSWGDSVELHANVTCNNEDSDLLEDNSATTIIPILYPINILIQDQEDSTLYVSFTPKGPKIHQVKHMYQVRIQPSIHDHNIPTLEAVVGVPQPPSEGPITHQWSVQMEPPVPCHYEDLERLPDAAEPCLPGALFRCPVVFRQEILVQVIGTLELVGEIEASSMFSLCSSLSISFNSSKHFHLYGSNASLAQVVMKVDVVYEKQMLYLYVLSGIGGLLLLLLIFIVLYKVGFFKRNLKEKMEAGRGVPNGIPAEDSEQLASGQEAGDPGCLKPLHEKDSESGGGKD
Chain of LFA-1 (P05107 23-769 partner): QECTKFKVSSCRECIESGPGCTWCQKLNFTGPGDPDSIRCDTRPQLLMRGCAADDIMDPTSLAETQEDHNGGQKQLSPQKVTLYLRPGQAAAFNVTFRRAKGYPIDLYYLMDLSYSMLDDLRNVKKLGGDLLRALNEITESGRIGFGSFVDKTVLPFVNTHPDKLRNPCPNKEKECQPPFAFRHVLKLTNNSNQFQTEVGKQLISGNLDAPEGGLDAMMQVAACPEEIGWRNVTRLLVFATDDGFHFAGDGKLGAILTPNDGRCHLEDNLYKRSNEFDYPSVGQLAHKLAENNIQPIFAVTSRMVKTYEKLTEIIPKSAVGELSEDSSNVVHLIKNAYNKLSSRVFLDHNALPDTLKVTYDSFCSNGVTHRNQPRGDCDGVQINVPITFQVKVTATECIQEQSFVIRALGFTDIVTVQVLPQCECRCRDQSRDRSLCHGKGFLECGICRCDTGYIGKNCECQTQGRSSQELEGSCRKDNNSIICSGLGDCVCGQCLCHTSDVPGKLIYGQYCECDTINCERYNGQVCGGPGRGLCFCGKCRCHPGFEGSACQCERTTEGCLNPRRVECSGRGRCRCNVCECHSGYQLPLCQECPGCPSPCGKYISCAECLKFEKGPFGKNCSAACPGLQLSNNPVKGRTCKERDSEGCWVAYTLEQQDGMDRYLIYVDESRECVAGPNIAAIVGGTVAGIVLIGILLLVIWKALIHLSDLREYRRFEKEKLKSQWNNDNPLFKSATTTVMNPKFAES

Row | Molecule | effect on ICAM-2 induced p44/42 MAPK phosphorylation [1] | tyrosine phosphorylation of ezrin [2] | lowering of the CD3/CD28 stimulus threshold [3] | p44/42 MAPK phosphorylation and activity on ICAM-2 treatment [4] | p44/42 MAPK phosphorylation and activity on ICAM-2 treatment ([4]; listed as soluble ICAM-2) | concentration inducing LFA-1 mediated adhesion ([5]; bulk cellular adhesion assay) [µM] | fold lower ICAM-2 soluble protein concentration compared with P1 [5] [fold]
1 | CN(C)CCCn1cc(C2=C(c3c[nH]c4ccccc34)C(=O)NC2=O)c2ccccc21 [bisindolymaleimide I] | diminished | minor affects | – | – | – | – | –
2 | ICAM-2: biochemically purified soluble human ICAM-2 protein from retrovirally transduced NIH3T3 cells; ICAM-2-FC fusion also used (protein, UniProt P13598 25-223, looked up, extracellular domain, biochemically purified soluble human ICAM-2 protein from retrovirally transduced NIH3T3 cells; ICAM-2-FC fusion also used) extracellular domain: KVFEVHVRPKKLAVEPKGSLEVNCSTTCNQPEVGGLETSLDKILLDEQAQWKHYLVSNISHDTVLQCHFTCSGKQESMNSNVSVYQPPRQVILTLQPTLVAVGKSFTIECRVPTVEPLDSLTLFLFRGNETLHYETFGKAAPAPQEATATFNSTADREDGHRNFSCLAVLDLMSRGGNIFHKHSAPKMLEIYEPVSDSQ | – | – | 10,000 fold | induced both p44/42 MAPK phosphorylation and activation | induced p44/42, MAPK phosphorylation and activity | 1.3 | 48
